Measured values reported in patent US8110551B2 (priority 2008, dated 2012).
Where two headings read alike, the source gives them in different places.

Assays:
Jurkat cells [1] = type: cell-based, human; details: 16 hr
CdtB = assay: Effect of phosphatase inhibitors on CdtB-mediated hydrolysis of PI-3,4,5-P3; type: biochemical, A. actinomycetemcomitans; details: for reduction of CdtB phosphatase activity: 0.5 μM CdtB, 30 min
Experimental: CdtB (0.5 μM; triangles) and PTEN (0.1 μM; circles) were incubated with liposomes containing PI-3,4,5-P3 in the presence of varying concentrations of tungstate or orthovanadate for 30 min. Phosphate release was measured using the malachite green binding assay. Results are plotted as phosphate release (nmol/30 min; mean±S.D.) versus inhibitor concentration (mM);
(§1) Phosphatase activity was assessed by monitoring the dephosphorylation of PI-3,4,5-P3 as described by Maehama et al [Maehama, T., G. Taylor, J. Slama, and J. Dixon. 2000. A sensitive assay for phosphoinositide phosphatases. Analytical Biochemistry 279:248-2501. Briefly, the reaction mixture (20 μl) consisted of 100 mM Tris-HCl (pH 8.0), 10 mM dithiothreitol, 0.5 mM diC16-phosphatidylserine (Avanti), 25 μM PI-3,4,5-P3 (diC16; Echelon) and the indicated amount of CdtB, CdtABC or PTEN (kindly provided by Gregory Taylor). Appropriate amounts of lipid solutions were deposited in 1.5 ml tubes, organic solvent removed, the buffer added and a lipid suspension formed by sonication. For experiments to determine substrate specificity, PI-3,4,5-P3 was replaced by the indicated phosphatidylinositol phosphate (Echelon). Phosphatase assays were carried out at 37° C. for 30 min; the reactions were terminated by the addition of 15 μl of 100 mM N-ethylmaleimide. Inorganic phosphate levels were then measured using a malachite green assay. Malachite green solution (Biomol Green; Biomol) was added to 100 μl of the enzyme reaction mixture and color was developed for 20 min at RT. Absorbance at 650 nm was measured and phosphate release quantified by comparison to inorganic phosphate standards.

[2] = type: biochemical
[3] = Substrate specificity with phosphoinositides in liposomes; type: biochemical; details: 0.5 μM CdtB, 0.1 μM PTEN; 30 min; liposomes with phosphatidylserine carrier; FIG. 3
Experimental: as §1, with “Malachite green solution (Biomol Green; Biomol) was added to 100 μl of the enzyme reaction mixture and color was developed for 20 min at RT.” left out
CdtB substrate specificity was assessed using several different phosphoinositides (PI). […] In order to determine whether CdtB is a 3- or 5-phosphatase, product formation was assessed using thin layer chromatography. […]

[4] = TLC analysis of product formation after PI-3,4,5-P3 hydrolysis; type: biochemical; details: 0.5 μM CdtB or 0.1 μM PTEN, FIG. 3 inset
Source text: Analysis of CdtB-Mediated Product Formation
Inositol lipids were separated by thin layer chromatography. Silica gel G plates were dipped in boric acid (5% in methanol) and then dried. They were then spotted with the lipid samples dissolved in chloroform/methanol/water (1/2/0.1) together with solutions containing the standard inositol lipids phosphatidyl 4,5 bisphosphate, phosphatidyl 3,4 bisphosphate, phosphatidyl 3,5bis phosphate, phosphatidyl 3,4,5 trisphosphate, and phosphatidyl inositol. The plates were eluted with solutions containing propyl acetate/isopropanol/ethanol/ammonia/water (15/45/16/9/35), dried, and sprayed with solution containing CuSO4/H3PO4 (8%/10%), and air dried again. Plates were then heated to 70° C. then to 155° C. to visualize the lipids.

[5] = Dephosphorylation of inositol phosphates; type: biochemical
[6] = Protein phosphatase activity with synthetic substrate; type: biochemical; details: synthetic substrate pNPP
supercoiled pUC19 DNA = type: biochemical
Jurkat cells [7] = type: cell-based, human
[8] = 30 min, read-out: ED0.5 [concentration required to catalyze 0.5 nmol phosphate release]

Molecule: O=c1cc(N2CCOCC2)oc2c(-c3ccccc3)cccc12 [LY290004]
- Cdt-induced accumulation of G2 cells after pre-treatment (Jurkat cells [1]): 22.0%

Molecule: [O]=[W](=[O])([O-])[O-] [tungstate]
- reduction of CdtB phosphatase activity (CdtB; 1 mM inhibitor): 15%
- reduction of CdtB phosphatase activity (CdtB; 10 mM inhibitor): 70%

Molecule: PTEN: Tumor suppressor phosphatase (phosphatase and tensin homolog deleted on chromosome ten), used for comparison [reference compound]
- Km [2]: 159 µM
- EC50 [2, 8]: 50 nM
- substrate specificity (phosphate release with phosphatidylinositol phosphates) [3]: substrate specificity for PI-(3,4,5)-P3 identical to CdtB
- product formed from PI-3,4,5-P3 [4]: PI-(4,5)-P2

Molecule: COC[C@H]1OC(=O)c2coc3c2[C@@]1(C)C1=C(C3=O)[C@@H]2CCC(=O)[C@@]2(C)C[C@H]1OC(C)=O [wortmannin]
- Cdt-induced accumulation of G2 cells after pre-treatment (Jurkat cells [1]): 35%

Molecule: [O]=[Mo](=[O])([O-])[O-] [molybdate]
- inhibition of CdtB (in words) (CdtB): failed to inhibit

Molecule: [O]=[V]([O-])([O-])[O-] [orthovanadate]
- reduction of CdtB phosphatase activity (CdtB; 1 mM inhibitor): 10%
- reduction of CdtB phosphatase activity (CdtB; 10 mM inhibitor): 85%

B1: CdtB: Active B subunit of cytolethal distending toxin, SEQ ID NO: 3, expressed from pGEMCdtB (protein)
chain: NLSDFKVATWNLQGSSAVNESKWNINVRQLLSGEQGADILMVQEAGSLPSSAVRTSRVIQHGGTPIEEYTWNLGTRSRPNMVYIYYSRLDVGANRVNLAIVSRRQADEAFIVHSDSSVLQSRPAVGIRIGTDVFFTVHALATGGSDAVSLIRNIFTTFTSSPSSPERRGYSWMVVGDFNRAPVNLEAALRQEPAVSENTIIIAPTEPTHRSGNILDYAILHDAHLPRREQARERIGASLMLNQLRSQITSDHFPVSFVRDR
modifications: Actinobacillus actinomycetemcomitans
- Km [2]: 124 µM
- PIP3 phosphatase activity (% CdtB^wt) [2]: 100 % CdtB^wt
- EC50 [2, 8]: 500 nM
- EC50 ([2]; read-out: ED0.5): 300 nM
- substrate specificity (phosphate release with phosphatidylinositol phosphates) [3]: only occurred in the presence of PI-3,4,5-P3
- dephosphorylation of inositol triphosphate or inositol tetrakisphosphate [5]: unable to dephosphorylate
- protein phosphatase activity [6]: did not exhibit detectable protein phosphatase activity
- product formed from PI-3,4,5-P3 [4]: PI-(3,4)-P2
- DNase Activity (% CdtB^wt) (supercoiled pUC19 DNA): 100 % CdtB^wt
- DNase activity (in words) (supercoiled pUC19 DNA; 2 hrs at 37° C.): detectable nuclease activity although it was less than five orders of magnitude of that observed with bovine DNase I
- toxicity (G2 cell cycle arrest), dose response (Jurkat cells [7]): comparable activity
- percentage of G2 cells (Jurkat cells [7]; 18 hrs): 54.8%
